Measurements reported in patent US20250108137A1, “APTAMERS SPECIFIC TO EBV-ASSOCIATED MALIGNANCIES AND THEIR APPLICATIONS IN CANCER IMAGING AND THERAPIES” (priority 2022, published 2025).

T1: MTDH (Homo sapiens, UniProt Q86UE4)
T1 construct: endogenous in cells; host or cells: EBV-positive NPC43 cells
T1 sequence (Q86UE4 1-582): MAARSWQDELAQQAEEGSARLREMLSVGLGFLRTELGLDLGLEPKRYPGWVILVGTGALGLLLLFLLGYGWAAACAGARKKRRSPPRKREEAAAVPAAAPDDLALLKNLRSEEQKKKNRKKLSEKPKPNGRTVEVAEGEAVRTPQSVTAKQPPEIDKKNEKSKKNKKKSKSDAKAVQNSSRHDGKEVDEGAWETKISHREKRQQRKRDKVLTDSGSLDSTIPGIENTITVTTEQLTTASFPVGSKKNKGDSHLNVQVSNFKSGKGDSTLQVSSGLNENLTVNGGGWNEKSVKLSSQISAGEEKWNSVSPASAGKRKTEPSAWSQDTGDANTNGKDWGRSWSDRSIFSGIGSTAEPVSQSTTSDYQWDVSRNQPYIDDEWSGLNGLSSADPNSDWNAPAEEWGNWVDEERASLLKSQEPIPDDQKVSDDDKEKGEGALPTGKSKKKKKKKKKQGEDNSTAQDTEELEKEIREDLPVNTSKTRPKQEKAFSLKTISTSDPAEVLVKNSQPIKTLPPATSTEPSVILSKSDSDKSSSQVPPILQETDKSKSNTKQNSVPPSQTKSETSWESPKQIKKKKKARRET


Legend:
[1] = test system: EBV-positive NPC cell lines (NPC43, C666-1 and C17); test: Binding to a panel of EBV-positive and EBV-negative cell lines; conditions: EBV-positive NPC43, C666-1, C17; EBV-negative A549, NP460
Procedure: (§1) 10 μM aptamers or aptamer pools were dissolved in DBPS with 5 mM MgCl2 as stock and diluted with binding buffer (DBPS with 5 mM MgCl2, 0.1% BSA, […] and 0.45% glucose) into 200 nM, followed by heating at 95° C. to 5 mins and chilling on ice for 5 mins. Cells were trypsinized and incubated in the aptamer solution at 4° C. for 30-60 mins. After incubation, the cells were washed once by precooled binding buffer. At last, the samples were analyzed on BD flowcytometry. For flow cytometric analysis of bead assay, the NTA beads were incubated with CNBP-his or MTDH-his containing cell lysates or control lysates for 1 hr at 4° C. and then washed with binding buffer for 3 times. After that, the beads were incubated with FAM-Apt-2019 or FAM-Apt-1194 (200 nM) for 30 mins at 4° C. At last, the bead-aptamer complexes were washed 3 times with binding buffer and analyzed by BD flow cytometer.
(§2) By binding of Apt-1194 & Apt-1798 with a panel of EBV-positive NPC cell lines (NPC43, C666-1 and C17), EBV-negative lung cancer cell line (A549) and nasopharyngcal cell line (NP460), the specificity of Apt-1194 to EBV-positive cells was confirmed (FIG. 4B). Proteins from NPC43 lysate were pulled down by Apt-1194. […] It has been reported that MTDH is a prognosis marker for NPC (19). […] Knockdown of MTDH could suppress proliferation and migration capability in NPC cells (FIG. 4F)

MTDH = molecular target: T1, MTDH; test: Pull-down from NPC43 lysate with mass spectrometry and western blot; assay type: binding; conditions: mass spectrometry, validated by Western blot
Procedure: (§3) The pulldown assay was performed by following the protocol from Shang Guan's lab. Then the protein samples were separated in PAGE gels and stained by pierce silver staining kit from Life Technology. The specific bands around 20 kDa or 70 kDa were sent to Biotech Company (Bei Jing) for mass spectrometry analysis.
as §2

[2] = Thioflavin T fluorescent enhancement assay for G-quadruplex formation; assay type: physicochemical; conditions: lithium cacodylate buffer or potassium phosphate buffer
Source text: Thioflavin T (ThT) is kind of G4 ligand dye, and its fluorescent signal would increase after binding to G4 structures. So, it is widely used in detecting G4 structure. The Apt-2019 was stained by ThT with the existence of Lit or Kt. Circular dichroism (CD) spectra was used for determination of the subtype of G4 structure.
Both Apt-2019 and Apt-1194 are guanine-rich oligonucleotides (GROs) in which the G content are 43 and 41% respectively. GROs can form stable G-quadruplex structures because four guanine bases form a square planar structure called a G-quartet through Hoogsteen base pairing, and these G-quartets spontaneously assemble into four-stranded helical structures termed G-quadruplex (G4) (FIG. 5A) (20). It is well known that G4-forming oligonucleotides are relatively stable against nuclease degradation (21). Therefore, we checked if Apt-2019 and Apt-1194 can form G4 using Thioflavin T (ThT) as a fluorescence light-up probe for G4 formation (22). […] The higher serum stability of Apt-2019 and Apt-1194 than random non-GC rich aptamers (FIG. 5D) can thus be explained by their stable G4 structure. To further characterize these novel NPC-targeting aptamers, we have measured their equilibrium dissociation constant (Kd).

EBV-positive C666-1 = test: Equilibrium dissociation constant on cells, FITC-tagged Apt-1194; assay type: binding; conditions: serial concentrations of FITC-tagged aptamer
Source text: (§4) FIGS. 5A-5G. Characterization of Apt-2019 and Apt-1194. (FIG. 5A) Diagram showing the G-quadraplex structure that can be formed by G-rich aptamers. (FIGS. 5B-5C) Fluorescent enhancement assay (FEA) was used to detect G-quadraplex forming sequences. Both Apt-2019 and Apt-1194 could form into G-quadraplex in the presence of K+ or L+ ions and then light up the ThT ligands. […] (FIGS. 5E-5F) A serial concentrations of FITC-tagged Apt-2019 and Apt-1194 were bound with LMP1-overexpressing NPC43 and EBV-positive C666-1 respectively. Equilibrium dissociation constant (Kd) was then calculated. (FIG. 5G) Apt-2019 was allowed to bind with live NPC cells for 45 mins. Internalization of Apt-2019 was validated by Z-stack imaging of confocal microscope.
as §1, with “For flow cytometric analysis of bead assay, the NTA beads were incubated with CNBP-his or MTDH-his containing cell lysates or control lysates for 1 hr at 4° C. and then washed with binding buffer for 3 times. After that, the beads were incubated with FAM-Apt-2019 or FAM-Apt-1194 (200 nM) for 30 mins at 4° C.” left out

[3] = test system: EBV-positive C666-1 tumors; test: In vivo fluorescence imaging of biodistribution, C666-1 tumors; design: species or system mice; conditions: fluorescence-tagged, tail vein injected, IVIS Spectrum imager
Source text: Fluorescence-tagged Apt-2019 and Apt-1194 were tail vein injected in mice bearing C15 tumors (an NPC xenograft with high expression of LMP1 (18)) and EBV-positive C666-1 tumors respectively. […] Tumors and organs (e.g., lungs and spleen) were taken out for fluorescence imaging (IVIS Spectrum imager).

[4] = compared with random aptamer sequences
NPC43^noEBV-LMP1 cells = test: Flow cytometry and confocal binding to LMP1-expressing cells vs vector control; conditions: among 8 selected aptamers; flow cytometric analysis and confocal microscopy; FAM-tagged
Procedure: as §1, with “cytometer. […]” for “cytometer.”
(§5) Identification of Apt-2019 which preferentially binds to LMP1-expressing cells. […] Flow cytometric analyses have shown the gradual increase of fluorescence signals on NPC43^noEBV-LMP1 cells bound with the FAM-tagged aptamers enriched from round 9, 11 and 12 Cell-SELEX (FIG. 1A), indicating a successful enrichment process. […] 8 sequences were selected out based on the sequence similarity and abundance of sequence reads. […]

[5] = test system: LMP1-transfected cell lines including HONE1, C17 and NP460; test: Binding to other LMP1-transfected cell lines vs vector control; conditions: compared to the vector control cells
Procedure: as §1, §5

CNBP [6] = molecular target: T2, CNBP (Homo sapiens, UniProt P62633); test: Flow analysis of CNBP-tagged and non-tagged beads with Apt-2019-FAM; assay type: binding; conditions: Apt-2019-FAM 200 nM; CNBP-tagged vs non-tagged beads
T2 construct: endogenous in cells; host or cells: LMP1-expressing NPC43(noEBV) cell lysate
Procedure: as §1
(§6) To identify the target surface protein which was bound by the Apt-2019 on LMP1-expressing cells, we have performed pull-down assay using Apt-2019. […] The proteins from this band were purified from the gel and subjected for protein identification by tandem mass spectrometry (MS/MS). […] To validate CNBP as the target of Apt-2019, the pull-down proteins from Apt-2019 and Apt-library in LMP1-cell lysates were blotted by the antibody against CNBP (FIG. 2A). […]

CNBP [7] = molecular target: T2, CNBP; test: Pull-down assay with mass spectrometry and western blot (LMP1-cell lysates); assay type: binding; conditions: band around 20 kd vs Apt-library; MS/MS; blotted with CNBP antibody
Procedure: as §3
To identify the target surface protein which was bound by the Apt-2019 on LMP1-expressing cells, we have performed pull-down assay using Apt-2019. […] The proteins from this band were purified from the gel and subjected for protein identification by tandem mass spectrometry (MS/MS). […] To validate CNBP as the target of Apt-2019, the pull-down proteins from Apt-2019 and Apt-library in LMP1-cell lysates were blotted by the antibody against CNBP (FIG. 2A). The docking model between the Apt-2019 and CNBP was also predicted by HDOCK (sec worldwide website: hdock.phys.hust.edu.cn/) (FIG. 2A). Another validation assay was done by flow analysis of CNBP-tagged and non-tagged beads after binding with Apt-2019-FAM (FIG. 2B). […] Moreover, Apt-2019-bounded CNBP was specifically expressed on the cell surface, as both the fluorescent signals of CNBP and Apt-2019 were localized on the ‘non-permeabilized’ NPC43-LMP1 cells. (FIG. 3A). […] All these confirmed Apt-2019 could bind to the cell surface CNBP on NPC cells. […]

CNBP-knockout cells = test: Aptamer binding to CNBP-knockout vs parental NPC cells
Procedure: as §1, §6

[8] = test system: LMP1-overexpressing NPC43; test: Equilibrium dissociation constant on cells, FITC-tagged Apt-2019; assay type: binding; conditions: serial concentrations of FITC-tagged aptamer
Source text: as §4
as §1, with “For flow cytometric analysis of bead assay, the NTA beads were incubated with CNBP-his or MTDH-his containing cell lysates or control lysates for 1 hr at 4° C. and then washed with binding buffer for 3 times. After that, the beads were incubated with FAM-Apt-2019 or FAM-Apt-1194 (200 nM) for 30 mins at 4° C.” left out

[9] = test system: LMP1-expressing NPC43 cells; test: Internalization by Z-stack confocal microscopy; assay type: cell-based; conditions: live cells, 45 mins
Source text: as §4
In live cell imaging, the NPC43-LMP1+ and NPC43-LMP1− cells were seeded in 3.5 cm confocal dishes 24 hrs before. The cells were washed with PBS 2 times and then incubated with 200 nM aptamers in binding buffer for 30 mins and washed with DPBS twice after. The Zeiss LSM880 was used for taking confocal images. In immunofluorescence and aptamer co-staining, the cells were fixed by 4% PFA for 15 mins and then blocked with 3% BSA for 1 hr. CNBP antibody was incubated with the cells in 1:100 dilution (Abclonal, 15110) for 1 hr followed with anti-Rabbit Alex-555 antibody (1:500) for 1 h. After washing for 3 times, FAM-Apt-2019 was added and incubated for 1 h.

[10] = test system: C15 tumors (an NPC xenograft with high expression of LMP1); test: In vivo fluorescence imaging of biodistribution, C15 xenograft; design: species or system mice; conditions: fluorescence-tagged, tail vein injected, IVIS Spectrum imager
Source text: Fluorescence-tagged Apt-2019 and Apt-1194 were tail vein injected in mice bearing C15 tumors (an NPC xenograft with high expression of LMP1 (18)) and EBV-positive C666-1 tumors respectively. We have also generated control aptamers to Apt-2019 and Apt-1194 by replacing all the G to C, so as to destroy the G4-forming ability. The resulting control aptamers are named as Apt-NG^2019 (SEQ ID NO: 4; Apt-NG^2019 (14-63) Aptamer: […]) and Apt-NG^1194 (SEQ ID NO:5; Apt-NG^1194 (1-58) Aptamer: […] GGCC). Tumors and organs (e.g., lungs and spleen) were taken out for fluorescence imaging (IVIS Spectrum imager).

T2 sequence (P62633 whole entry): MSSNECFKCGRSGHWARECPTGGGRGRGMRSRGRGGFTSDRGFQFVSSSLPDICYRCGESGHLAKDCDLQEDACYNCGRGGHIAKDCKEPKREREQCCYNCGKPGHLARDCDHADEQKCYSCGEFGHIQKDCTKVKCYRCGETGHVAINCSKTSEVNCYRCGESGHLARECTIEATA

Row | Molecule | specific binding to EBV-positive vs EBV-negative cell lines [1] | target identified by pull-down (MTDH) | G-quadruplex (G4) formation, ThT light-up [2] | equilibrium dissociation constant (Kd) (EBV-positive C666-1) | accumulation in the tumors [3] | serum stability [4] | preferential binding to LMP1-expressing cells (NPC43^noEBV-LMP1 cells) | specific binding ability in LMP1-transfected cell lines [5] | binding to CNBP-tagged beads (CNBP [6]) | target identified by pull-down (CNBP [7]) | binding after CRISPR-knockout of CNBP (CNBP-knockout cells) | equilibrium dissociation constant (Kd) [8] | internalization into cells [9] | accumulation in the tumors [10]
1 | Apt-1798: DNA aptamer, SEQ ID NO: 3, top enriched sequence targeting EBV-positive cells (nucleic acid, DNA, backbone and methylation of C not given here) DNA: ATCCAGAGTGACGCAGCAATCGTGGACCTGGCTGTGGTTTGCTGAGGTGGGCGCCAATTGGACACGGTGGCTTAGT | could bind specifically to EBV-positive cell lines but not to EBV-negative cell lines |  |  |  |  |  |  |  |  |  |  |  |  | 
2 | Apt-1194: DNA aptamer, SEQ ID NO: 2, from Cell-SELEX and in vivo-SELEX on EBV-positive NPC43; binds MTDH (nucleic acid, DNA, backbone and methylation of C not given here; further chemistry not fully specified) DNA: ATCCAGAGTGACGCAGCACCGAGCGAGTTGGTTTGCTGCGGTGGGCAGAGAGGTGGGGTGGACACGGTGGCTTAGT | could bind specifically to EBV-positive cell lines but not to EBV-negative cell lines | MTDH was found to be the target | could fold into G4 | nanomolar range | accumulation | much higher serum stability than random aptamer sequences |  |  |  |  |  |  |  | 
3 | Apt-2019: DNA aptamer, SEQ ID NO: 1, from Cell-SELEX on LMP1-expressing NPC43 cells; binds CNBP (nucleic acid, DNA, backbone and methylation of C not given here; further chemistry not fully specified) DNA: ATCCAGAGTGACGCAGCAGAATGGGTGGGATTCCTCAGAGGGGTTGGTGAGTTTGTGATGGACACGGTGGCTTAGT |  |  | could fold into G4 |  |  | much higher serum stability than random aptamer sequences | highest preferential binding to LMP1-expressing cells | could preferentially bind to all these LMP1-overexpressing cells | could specifically bind to the CNBP-tagged beads | CNBP was found to be the potential target | inhibited the binding | nanomolar range | could be internalized | accumulation
